pKd: −log10 of the molar value.
Experiments:
[1] = tested on: RNase E NTD 8x mutant (Escherichia coli); assay: BLI; details: 5' monophosphate; 3' U-biotin ligated; BLI: 25 mM HEPES pH 7.0, 150 mM NaCl, 100 mM KCl, 10 mM CaCl2, 0.5 mM TCEP; RNA immobilised on streptavidin sensors, protein 0-500 nM; temperature not stated
[2] = tested on: RNase E NTD WT (Escherichia coli); assay: BLI; details: 3' U-biotin ligated, BLI: 25 mM HEPES pH 7.0, 150 mM NaCl, 100 mM KCl, 10 mM CaCl2, 0.5 mM TCEP, RNA immobilised on streptavidin sensors, protein 0-500 nM, temperature not stated

Substance: RprA 5'-monophosphate
- pKd [1]: 7.33
- pKd ([2]; 5' monophosphate): 7.81

Substance: RprA 5'-triphosphate
- pKd ([2]; 5' triphosphate): 8.07

From paper PMC6202311
